Test results taken from patent US20240010750A1 (Bayer, published 2024).
Like-named read-outs stand apart in the source and are kept apart here.

Key:
human alpha2-Antiplasmin [1] = biological target: T1, human alpha2-Antiplasmin (human, UniProt P08697 40-491); experiment: ELISA, coated antigen, 1st exp.
T1 construct: Bought (antibodies online, ABIN2544306); also called human A2AP; a2AP
T1 sequence: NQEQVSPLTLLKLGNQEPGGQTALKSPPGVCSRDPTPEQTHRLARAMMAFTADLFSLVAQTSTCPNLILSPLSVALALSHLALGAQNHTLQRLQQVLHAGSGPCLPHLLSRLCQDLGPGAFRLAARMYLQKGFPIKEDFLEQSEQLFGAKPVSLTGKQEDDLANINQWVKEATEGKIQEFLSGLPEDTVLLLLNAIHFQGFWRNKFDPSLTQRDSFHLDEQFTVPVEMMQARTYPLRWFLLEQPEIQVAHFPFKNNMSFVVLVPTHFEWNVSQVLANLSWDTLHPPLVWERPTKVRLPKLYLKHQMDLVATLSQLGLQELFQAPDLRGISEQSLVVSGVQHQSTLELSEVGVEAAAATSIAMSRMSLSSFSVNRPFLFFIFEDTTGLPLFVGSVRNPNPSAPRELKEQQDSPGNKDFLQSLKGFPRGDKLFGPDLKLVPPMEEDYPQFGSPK
Description: (§1) A standard ELISA format was used for analyzing the binding affinity of Fabs of this invention to human and rabbit alpha-2-Antiplasmin, respectively. Antigens were coated to black 384 well Maxisorp microtiter plates (Nunc; catalogue number 460518), diluted to a concentration of 1 μg/ml in 1× Coating Buffer (Candor Bioscience; catalogue number 121125). Plates were incubated overnight at 4° C. After overnight incubation, plates were washed 2× with 50 μl/well using PBS+0.05% Tween 20. Following this, 50 μl/well of blocking buffer (Smart Block; Candor Bioscience; catalogue number 113500) was added and the plates were incubated for 1 hour at room temperature. Afterwards, plates were washed for 3× using […] PBS+0.05% Tween 20 buffer. Fabs of this invention were added at different concentrations in a final volume of 30 μl/well. Plates were incubated for 1 hour at room temperature. Following this incubation step, plates were washed for 3× using 50 μl/well of a PBS+0.05% Tween 20 buffer. For the detection of bound Fabs and full-length antibodies, the anti-Human Lambda Light Chains (Bound and Free)—Peroxidase antibody (Sigma; catalogue number A5175) was diluted by the factor of 1:10.000 in 10% Blocking Buffer. 30 μl/well of this diluted detection antibody was added and plates are incubated for 1 hour at room temperature. Following this incubation step, plates were washed for 3× using 50 μl/well of a PBS+0.05% Tween 20 buffer. As substrate, a mixture of 30 μl/well of 1:1000 diluted Amplex red (Invitrogen; catalogue number 12222; stock solution 10 mM in DMSO) and 1:10.000 of Hydrogen peroxide (Merck; catalogue number 107209; 30% stock solution) was added and the plates incubated for minutes in the dark.
(§2) For measurement, the Infinite f500 reader (Tecan) was used. Measurement mode: Fluorescence; Top reading; Ex 535 nm; Em 590 nm.
(§3) According to the methods described in Example 3 and Example 4, antibodies TPP-14323, TPP-14318, TPP-14314, TPP-14313, TPP-14308, TPP-14305, TPP-14303, TPP-14298, and TPP-14293 were tested for their ability to bind to and to block the activity of human alpha2-Antiplasmin in a dose-dependent manner. For each antibody, one dose response curve from two to three independent experiments performed in quadruplicate is shown as example in FIG. 7.1 to FIG. 7.18. (see Table 3.3)

human alpha2-Antiplasmin [2] = biological target: T1, human alpha2-Antiplasmin; experiment: ELISA, coated antigen, 2nd exp.
Description: as §1, §2, §3

human Plasmin = human Plasmin (human, UniProt P00747 97-580; P00747 581-810, limits assumed); experiment: cell-based or functional assay
human alpha2-Antiplasmin [3] = biological target: T1, human alpha2-Antiplasmin; experiment: cell-based or functional assay
human alpha2-Antiplasmin [4] = biological target: T1, human alpha2-Antiplasmin; experiment: cell-based or functional assay; remark: listed apart in the source
human alpha2-Antiplasmin [5] = biological target: T1, human alpha2-Antiplasmin; experiment: ELISA, coated antigen, 3rd exp.
Description: as §1, §2, §3

[6] = biological target: T2, cynomolgus alpha2-Antiplasmin (cynomolgus (Macaca fascicularis), UniProt P08697 28-491 (human entry)); experiment: SPR Biacore T200, antibody captured on protein G chip, A2AP as analyte, 25 C
T2 construct: Made in house in the same way as the rabbit protein; also called cynomolgus A2AP; Macaca fascicularis A2AP
T2 chain: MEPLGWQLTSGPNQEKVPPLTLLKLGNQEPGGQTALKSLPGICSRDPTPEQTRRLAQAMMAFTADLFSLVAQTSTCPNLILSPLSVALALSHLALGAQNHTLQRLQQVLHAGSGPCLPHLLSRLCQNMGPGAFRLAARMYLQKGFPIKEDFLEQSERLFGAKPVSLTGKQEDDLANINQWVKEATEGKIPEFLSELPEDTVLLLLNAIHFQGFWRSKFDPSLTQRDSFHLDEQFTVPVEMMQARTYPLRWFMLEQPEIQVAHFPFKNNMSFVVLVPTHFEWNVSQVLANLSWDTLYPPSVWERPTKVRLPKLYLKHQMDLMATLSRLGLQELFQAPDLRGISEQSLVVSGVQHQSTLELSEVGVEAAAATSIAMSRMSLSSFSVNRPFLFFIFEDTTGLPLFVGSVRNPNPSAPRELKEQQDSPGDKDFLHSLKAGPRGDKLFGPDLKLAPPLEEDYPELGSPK
Description: (§4) Binding assays were performed on a Biacore T200 instrument at 25° C. with a protein G sensor chip and assay buffer HBS-EP+. Antibodies were captured to ˜150 RU and analytes were used at concentrations between 1.56 and 200 nM for full kinetics. As interaction partner, alpha2-Antiplasmin from human, cynomolgus and rabbit was used. Regeneration was performed with glycine-HCl pH 1.5. Kinetic parameters were derived by fitting experimental sensorgrams to a 1:1 Langmuir binding model.

[7] = biological target: T3, rabbit alpha2-Antiplasmin (rabbit (Oryctolagus cuniculus)); experiment: as above
T3 construct: Made in house in HEK293 cells, purified by Ni-IMAC and SEC (a His tag is implied but not described); also called rabbit A2AP; Oryctolagus cuniculus A2AP
T3 chain: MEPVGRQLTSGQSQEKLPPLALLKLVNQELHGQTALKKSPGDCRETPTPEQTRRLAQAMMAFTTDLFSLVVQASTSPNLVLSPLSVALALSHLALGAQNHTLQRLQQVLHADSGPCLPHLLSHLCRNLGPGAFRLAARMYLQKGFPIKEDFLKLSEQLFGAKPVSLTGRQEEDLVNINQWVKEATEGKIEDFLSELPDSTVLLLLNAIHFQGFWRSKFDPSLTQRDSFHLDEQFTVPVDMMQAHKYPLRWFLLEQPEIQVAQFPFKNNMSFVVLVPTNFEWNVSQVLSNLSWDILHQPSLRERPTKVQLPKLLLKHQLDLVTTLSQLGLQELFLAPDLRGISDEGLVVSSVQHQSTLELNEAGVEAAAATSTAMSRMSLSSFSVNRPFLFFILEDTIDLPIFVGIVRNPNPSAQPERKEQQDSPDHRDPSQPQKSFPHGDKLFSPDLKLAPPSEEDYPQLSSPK
Description: as §4

human alpha2-Antiplasmin [8] = biological target: T1, human alpha2-Antiplasmin; experiment: as above
Description: as §4

human alpha2-Antiplasmin [9] = biological target: T1, human alpha2-Antiplasmin; experiment: cell-based or functional assay; remark: listed apart in the source
human alpha2-Antiplasmin [10] = biological target: T1, human alpha2-Antiplasmin; experiment: cell-based or functional assay; remark: listed apart in the source
human alpha2-Antiplasmin [11] = biological target: T1, human alpha2-Antiplasmin; experiment: ELISA, coated antigen, quantified unpurified antibody, 1st exp.
human alpha2-Antiplasmin [12] = biological target: T1, human alpha2-Antiplasmin; experiment: cell-based or functional assay; remark: listed apart in the source
human alpha2-Antiplasmin [13] = biological target: T1, human alpha2-Antiplasmin; experiment: ELISA, coated antigen, quantified unpurified antibody, 2nd exp.
human alpha2-Antiplasmin [14] = biological target: T1, human alpha2-Antiplasmin; experiment: cell-based or functional assay; remark: listed apart in the source
human alpha2-Antiplasmin [15] = biological target: T1, human alpha2-Antiplasmin; experiment: ELISA, coated antigen, quantified unpurified antibody, 3rd exp.
Description: as §1, §2

human alpha2-Antiplasmin [16] = biological target: T1, human alpha2-Antiplasmin; experiment: ELISA (Example 3), human alpha2-Antiplasmin coated, RFU
Description: as §1, with “As substrate, a mixture of 30 μl/well of 1:1000 diluted Amplex red (Invitrogen; catalogue number 12222; stock solution 10 mM in DMSO) and 1:10.000 of Hydrogen peroxide (Merck; catalogue number 107209; 30% stock solution) was added and the plates incubated for minutes in the dark.” left out
as §2
According to the method described in Example 3, these 12 antibodies were tested for ability to bind human and rabbit alpha2-Antiplasmin in a dose-dependent manner. Data generated were analyzed using the GraphPadPrism software. The binding activities of the antibodies were calculated as EC50 values. […]

human Plasmin, sequence (P00747 97-580 limits assumed, chain 1 of 2): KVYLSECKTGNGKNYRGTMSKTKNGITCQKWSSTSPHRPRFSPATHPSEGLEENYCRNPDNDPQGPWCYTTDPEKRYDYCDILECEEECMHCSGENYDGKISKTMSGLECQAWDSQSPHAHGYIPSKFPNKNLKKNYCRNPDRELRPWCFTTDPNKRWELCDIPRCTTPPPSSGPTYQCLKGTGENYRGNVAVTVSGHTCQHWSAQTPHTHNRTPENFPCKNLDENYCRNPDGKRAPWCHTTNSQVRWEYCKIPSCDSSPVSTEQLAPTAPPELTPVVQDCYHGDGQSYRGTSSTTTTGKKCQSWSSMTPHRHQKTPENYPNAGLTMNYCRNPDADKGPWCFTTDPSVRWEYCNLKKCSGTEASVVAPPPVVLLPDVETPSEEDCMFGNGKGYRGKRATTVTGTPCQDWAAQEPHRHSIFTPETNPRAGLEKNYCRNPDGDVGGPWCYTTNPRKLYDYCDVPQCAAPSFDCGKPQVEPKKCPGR
human Plasmin, sequence (P00747 581-810 limits assumed, chain 2 of 2): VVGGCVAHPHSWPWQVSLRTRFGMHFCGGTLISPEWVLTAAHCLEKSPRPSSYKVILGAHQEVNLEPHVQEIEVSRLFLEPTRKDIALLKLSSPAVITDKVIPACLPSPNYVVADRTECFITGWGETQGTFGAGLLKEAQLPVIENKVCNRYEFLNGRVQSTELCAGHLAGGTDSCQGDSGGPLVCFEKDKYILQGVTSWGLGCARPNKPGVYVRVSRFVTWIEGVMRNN

EC50 (human alpha2-Antiplasmin [1]) [nM]	EC50 (human alpha2-Antiplasmin [2]) [nM]	IC50 [M], inhibition of plasmin proteolytic activity (human Plasmin) [M]	function blocking activity [IC50 M], 1st exp. (human alpha2-Antiplasmin [3]) [nM]	function blocking activity [IC50 M], 2nd exp. (human alpha2-Antiplasmin [3]) [nM]	function blocking activity [IC50 M], 3rd exp. (human alpha2-Antiplasmin [3]) [nM]	EC50 (human alpha2-Antiplasmin [5]) [nM]	Kd [6] [nM]	Kd [7] [nM]	Kd (human alpha2-Antiplasmin [8]) [nM]	EC50 (human alpha2-Antiplasmin [11]) [nM]	IC50, A2AP function blocking assay (Example 10) (human alpha2-Antiplasmin [12]) [nM]	EC50 (human alpha2-Antiplasmin [13]) [nM]	function blocking activity [IC50 M], 1st exp. (human alpha2-Antiplasmin [14]) [nM]	function blocking activity [IC50 M], 2nd exp. (human alpha2-Antiplasmin [14]) [nM]	Binder	other results
–	–	> 1e-05	–	–	–	–	7.6	18	11	0.19	0.64	0.23	0.56	0.69	TPP-17041 hIgG1 (antibody, V domains shown, Germline variant of TPP-14308) VH: EVQLLESGGGLVQPGGSLRLSCAASGFTFSDYAMSWVRQAPGKGLEWVSAIGTGGGTYYADSVKGRFTISRDNSKNTLYLQMNSLRAEDTAVYYCAREGYDSSGYYHLDYWGQGTLVTVSS VL: QSVLTQPPSASGTPGQRVTISCTGSSSNIGATYDVHWYQQLPGTAPKLLIYSNNQRPSGVPDRFSGSKSGTSASLAISGLRSEDEADYYCAAWDWSLSGWVFGGGTKLTVLG	EC50 (read off the curve); function blocking assay (Example 4), RFU of plasmin substrate cleavage (human alpha2-Antiplasmin [9]): ~0.5 nM
–	–	> 1e-05	–	–	–	–	13	17	18	0.11	0.33	0.16	0.33	0.44	TPP-17051 hIgG1 (antibody, V domains shown, Germline variant of TPP-14308) VH: EVQLLESGGGLVQPGGSLRLSCAASGFTFDSYAMSWVRQAPGKGLEWVSAIGTGGSTYYADSVKGRFTISRDNSKNTLYLQMNSLRAEDTAVYYCAREGYDSSGYYHLDYWGQGTLVTVSS VL: QSVLTQPPSASGTPGQRVTISCTGSSSNIGATYDVHWYQQLPGTAPKLLIYSNNQRPSGVPDRFSGSKSGTSASLAISGLRSEDEADYYCAAWDWSLSGWVFGGGTKLTVLG	EC50 (human alpha2-Antiplasmin [15]): 0.22 nM

Continued, binder first:

Binder	EC50 (human alpha2-Antiplasmin [1]) [nM]	EC50 (human alpha2-Antiplasmin [2]) [nM]	IC50 [M], inhibition of plasmin proteolytic activity (human Plasmin) [M]	function blocking activity [IC50 M], 1st exp. (human alpha2-Antiplasmin [3]) [nM]	function blocking activity [IC50 M], 2nd exp. (human alpha2-Antiplasmin [3]) [nM]	function blocking activity [IC50 M], 3rd exp. (human alpha2-Antiplasmin [3]) [nM]	EC50 (human alpha2-Antiplasmin [5]) [nM]	Kd [6] [nM]	Kd [7] [nM]	Kd (human alpha2-Antiplasmin [8]) [nM]	EC50 (human alpha2-Antiplasmin [11]) [nM]	IC50, A2AP function blocking assay (Example 10) (human alpha2-Antiplasmin [12]) [nM]	EC50 (human alpha2-Antiplasmin [13]) [nM]	function blocking activity [IC50 M], 1st exp. (human alpha2-Antiplasmin [14]) [nM]	function blocking activity [IC50 M], 2nd exp. (human alpha2-Antiplasmin [14]) [nM]	other results
TPP-14305 hIgG1 (antibody, V domains shown) VH: EVQLLESGGGLVQPGGSLRLSCAASGFTFDDYAMSWVRQAPGKGLEWVSAIGTGGGTYYADSVKGRFTISRDNSKNTLYLQMNSLRAEDTAVYYCAREGYDSSGYYHLDYWGQGTLVTVSS VL: QSVLTQPPSASGTPGQRVTISCTGSSSNIGATYDVHWYQQLPGTAPKLLIYSNNQRPSGVPDRFSGSKSGTSASLAISGLRSEDEADYYCWAWDDSLSGWVFGGGTKLTVLG	15	16	> 2e-06	64	69	66	16	–	–	–	–	–	–	–	–	EC50 (read off the curve); function blocking assay (Example 4), RFU of plasmin substrate cleavage (human alpha2-Antiplasmin [4]): ~60 nM
TPP-14308 hIgG1 (antibody, V domains shown, starting point of the germlining) VH: EVQLLESGGGLVQPGGSLRLSCAASGFTFDDYAMSWVRQAPGKGLEWVSAIGTGGGTYYADSVKGRFTISRDNSKNTLYLQMNSLRAEDTAVYYCAREGYDSSGYYHLDYWGQGTLVTVSS VL: QSVLTQPPSASGTPGQRVTISCTGSSSNIGATYDVHWYQQLPGTAPKLLIYSNNQRPSGVPDRFSGSKSGTSASLAISGLRSEDEADYYCAAWDWSLSGWVFGGGTKLTVLG	5.7	61	> 5e-06	2.4	30	24	60	3.1	7.8	3.9	–	–	–	–	–	EC50 (read off the curve); function blocking assay (Example 4), RFU of plasmin substrate cleavage; comparator curve [same curve in 8.4, D00008 8.6, 8.8, D00009 8.10, 8.12] (human alpha2-Antiplasmin [9]): ~2 nM; EC50 (read off the curve); function blocking assay (Example 4), RFU of plasmin substrate cleavage (human alpha2-Antiplasmin [10]): ~2 nM
TPP-14314 hIgG1 (antibody, V domains shown, Human IgG1 lambda) VH: EVQLLESGGGLVQPGGSLRLSCAASGFTFDDYAMSWVRQAPGKGLEWVSAIGTGGGTYYADSVKGRFTISRDNSKNTLYLQMNSLRAEDTAVYYCAREYYDSSGYYHLVYWGQGTLVTVSS VL: QSVLTQPPSASGTPGQRVTISCTGSSSNIGATYDVHWYQQLPGTAPKLLIYSNNQRPSGVPDRFSGSKSGTSASLAISGLRSEDEADYYCAAWDVSLSGWVFGGGTKLTVL	8.1	82	> 2e-06	68	73	69	84	–	–	–	–	–	–	–	–	EC50 (read off the curve) (human alpha2-Antiplasmin [16]): ~8 nM
